Assay results taken from US6723841.

Experiments:
[1] = molecular target: human CRF1 receptor (human) (UniProt P34998); assay: cell-based or functional assay
[2] = molecular target: T1, human CRF2α receptor (human) (UniProt Q13324); assay: cell-based or functional assay
T1 sequence: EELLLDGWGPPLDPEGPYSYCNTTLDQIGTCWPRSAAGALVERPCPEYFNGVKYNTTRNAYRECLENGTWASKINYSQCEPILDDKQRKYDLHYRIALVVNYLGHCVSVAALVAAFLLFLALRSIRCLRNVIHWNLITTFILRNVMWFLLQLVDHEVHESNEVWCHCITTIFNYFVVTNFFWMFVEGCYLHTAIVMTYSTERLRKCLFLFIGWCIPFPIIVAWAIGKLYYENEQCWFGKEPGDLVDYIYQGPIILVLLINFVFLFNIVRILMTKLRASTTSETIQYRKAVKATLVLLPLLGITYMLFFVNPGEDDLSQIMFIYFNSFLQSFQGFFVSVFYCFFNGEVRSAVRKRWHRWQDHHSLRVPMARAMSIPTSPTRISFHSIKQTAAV

human CRF1 receptor (human), sequence (P34998 24-415): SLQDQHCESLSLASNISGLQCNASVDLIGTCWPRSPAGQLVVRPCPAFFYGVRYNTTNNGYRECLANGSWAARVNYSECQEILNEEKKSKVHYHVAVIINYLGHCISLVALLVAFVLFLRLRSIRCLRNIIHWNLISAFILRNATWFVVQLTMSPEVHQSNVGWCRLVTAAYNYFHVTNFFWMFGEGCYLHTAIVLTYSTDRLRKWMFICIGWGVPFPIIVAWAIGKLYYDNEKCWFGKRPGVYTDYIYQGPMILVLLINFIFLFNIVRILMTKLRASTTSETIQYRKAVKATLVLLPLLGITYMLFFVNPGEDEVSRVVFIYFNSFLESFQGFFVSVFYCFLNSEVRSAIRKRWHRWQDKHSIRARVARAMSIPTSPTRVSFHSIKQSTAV

EC50 of adenylate cyclase stimulation (cAMP) [1] [nM]	EC50 of adenylate cyclase stimulation (cAMP) [2] [nM]	Substance
800	> 1000	Gly41 r/hCRF-OH (from UniProt P06850 154-194) (peptide)
4	2	Urotensin I (peptide)
> 1000	> 1000	α-helical oCRF(9-41) (peptide)
